This is an account of results in paper PMC9239176, “Involvement of the DNA Phosphorothioation System in TorR Binding and Anaerobic TMAO Respiration in Salmonella enterica”.

Data set [1] relates to DndG (Salmonella enterica serovar Cerro 87). Kind of data set: pull-down LC-MS/MS. As to conditions: EMSA: 50 nM DNA, 20 mM Tris-HCl pH 8.0, 50 mM KCl, 10 mM MgCl2, 5 mM EDTA, 10 mM DTT, 5% glycerol, 28 C 30 min, gel at 4 C, pull-down: cell lysate, 4 C 4 h. In general terms: In EMSA bound probe runs differently from free probe, usually more slowly.
The subject of data set [2] is Biotin carboxyl carrier protein of acetyl-CoA carboxylase (Salmonella enterica serovar Cerro 87). Kind of data set: pull-down LC-MS/MS. The following applies: EMSA: 50 nM DNA, 20 mM Tris-HCl pH 8.0, 50 mM KCl, 10 mM MgCl2, 5 mM EDTA, 10 mM DTT, 5% glycerol, 28 C 30 min, gel at 4 C, pull-down: cell lysate, 4 C 4 h.
Data set [3] deals with DndF (Salmonella enterica serovar Cerro 87). Kind of data set: pull-down LC-MS/MS. As to conditions: EMSA: 50 nM DNA, 20 mM Tris-HCl pH 8.0, 50 mM KCl, 10 mM MgCl2, 5 mM EDTA, 10 mM DTT, 5% glycerol, 28 C 30 min, gel at 4 C, pull-down: cell lysate, 4 C 4 h.
For another data set, the target named is T1, TorR CTD (Salmonella enterica serovar Cerro 87, UniProt Q8ZKZ5 127-230).
T1 sequence: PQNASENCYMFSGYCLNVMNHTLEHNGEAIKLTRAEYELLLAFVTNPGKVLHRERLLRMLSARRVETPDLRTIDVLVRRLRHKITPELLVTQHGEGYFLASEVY
Description: EMSA; EMSA: 50 nM DNA, 20 mM Tris-HCl pH 8.0, 50 mM KCl, 10 mM MgCl2, 5 mM EDTA, 10 mM DTT, 5% glycerol, 28 C 30 min, gel at 4 C; pull-down: cell lysate, 4 C 4 h. The following applies: protein: recombinant; tags: His (pET28a, Ni-NTA).

[4] abbreviates: phosphorothioate: strand 1 between G13 and A14, strand 2 between G15 and T16.

As for “GGCCCACTACGTGAACCATCACCCTAATCA (double strand) [B12]”, the results for the binding signal (normalized spectral count) in data set [1] (setting [4]), in data set [2] (setting [4]) and in data set [3] (setting [4]) were 30.9, 1.41 and 20.2, respectively.
On to “GGCCCACTACGTGAACCATCACCCTAATCA (double strand) [B34]”, for which the binding signal (B34/B12 ratio) in data set [1] was found to be 0.32; in data set [2], 2.78; in data set [3] it was 0.43.

B1: tor box1, PT (dsDNA)
DNA 1: CCTGCGCGCGGTCTCTTTCTGTTCATATCT
DNA 2: AGATATGAACAGAAAGAGACCGCGCGCAGG
modifications: phosphorothioate GpsTTC/GpsAAC
Regarding B1, the binding result in the data set with TorR CTD is given as “binds”.
